{"source": "patent US20260176336A1", "about": "(MESTAG THERAPEUTICS, published 2026)", "binders": {"B1": {"name": "BHA10 (antibody, V domains shown)", "VH": "QVQLVQSGAEVKKPGSSVKVSCKASGYTFTTYYLHWVRQAPGQGLEWMGWIYPGNVHAQYNEKFKGRVTITADKSTSTAYMELSSLRSEDTAVYYCARSWEGFPYWGQGTTVTVSS", "VL": "DIQMTQSPSSLSASVGDRVTITCKASQNVGINVAWYQQKPGKAPKSLISSASYRYSGVPSRFSGSGSGTDFTLTISSLQPEDFATYFCQQYDTYPFTFGQGTKVEIK", "notes": "as disclosed in WO2004002431; also called BHA10 (anti-LTBR); monospecific anti-LTBR agonist"}}, "key": {"[1]": {"target": "T1, human LTBR endogenously expressed on cells (HepG2, A549, A375, HCC1187, RPMI-7951, primary human breast CAFs) (human, UniProt P36941 31-435)", "test": "cell-based or functional assay"}, "[2]": {"target": "T1, human LTBR endogenously expressed on …", "test": "cell-based or functional assay", "remark": "listed apart in the source"}, "[3]": {"target": "T1, human LTBR endogenously expressed on …", "test": "cell-based or functional assay", "remark": "listed apart in the source"}, "[4]": {"target": "T1, human LTBR endogenously expressed on …", "test": "flow cytometry, A549 cells", "procedure": "(§1) The ability of VHH-Fc fusion proteins to bind to endogenously expressed LTBR on the A549 tumor cell and to inhibit human LIGHT (Acro, cat. no LIT-H5242) binding to A549 cells was assessed. BHA10 was employed in the assay as a positive control. Recombinant human LIGHT was labelled with PE fluorochrome, using PE/R-Phycoerythrin Conjugation Kit—Lightning-Link® (Abcam, cat no ab102918), following the manufacturer's instructions. 1×10⁶ cells were resuspended in the FACS buffer (1% BSA, 0.1% Sodium Azide in PBS), and 50 ul was added to each well ([…]) of a 96-U bottom plate. The cells were washed and resuspended in 25 ul of antibody dilution (2× final concentration) followed by 0.5 h incubation at 4° C., 25 ul of PE labelled LIGHT at 48 nM (2× final concentration) in FACS buffer was subsequently added to the cells and additionally incubated for 1 h at 4° C. […] Next, cells were extensively washed and fixed with Paraformaldehyde Solution, 4% in PBS (Thermo Scientific, cat no J19943.K2) for 20 mins, following the manufacturer's instructions. The cells were then washed, resuspended in PBS, and read on Beckman Coulter CytoFLEX. The data were analysed using FloJo V10 and GraphPad Prism v9. The IC50 and EC50 values can be found in."}, "[5]": {"target": "T1, human LTBR endogenously expressed on …", "test": "flow cytometry, A549 cells", "procedure": "In short, 1×10⁶ cells were resuspended in the FACS buffer (1% BSA, 0.1% Sodium Azide in PBS), and 50 μl was added to each well (5×10⁴ cells/well) of a 96-U bottom plate. The cells were washed once and resuspended in 50 μl/well of FACS buffer containing a 1:3, 11-point series dilutions of constructs 4.1-4.6 and clones 4.8-4.9 followed by 1 h incubation at 4° C. […] Next, cells were washed and resuspended in FACS buffer and read on Beckman Coulter CytoFLEX. The data were analysed using FloJo V10 and GraphPad Prism v9. Clone 4.7 was tested for binding to A375 (LTBR positive cell line) and the HEK293-FAP overexpressing cell line, as described in examples 2.4 and 3.5. The EC50 values can be found in.", "remark": "listed apart in the source"}, "[6]": {"target": "T1, human LTBR endogenously expressed on …", "test": "flow cytometry, inhibition of PE-LIGHT (24 nM final) binding to A549 cells; competitor LIGHT; partial inhibition", "procedure": "as §1"}}, "note": "Like-named read-outs stand apart in the source and are kept apart here.", "data": [{"binder": "B1", "values": [{"measurement": "HepG2 Reporter assay (NFKB activation-induced luciferase activity) EC50", "setting": "[1]", "value": 0.012, "unit": "nM"}, {"measurement": "HCC1187 chemokine induction assay (CCL19) EC50", "setting": "[2]", "value": 0.53, "unit": "nM"}, {"measurement": "HepG2 reporter assay EC50 (w/o cross-linking antibody)", "setting": "[3]", "value": 0.052, "unit": "nM"}, {"measurement": "HepG2 reporter assay EC50 (with cross-linking antibody)", "setting": "[3]", "value": 0.029, "unit": "nM"}, {"measurement": "EC50", "setting": "[4]", "value": 0.78, "unit": "nM"}, {"measurement": "EC50", "setting": "[5]", "value": 0.055, "unit": "nM"}, {"measurement": "IC50", "setting": "[6]", "value": 0.67, "unit": "nM"}]}]}
